Measured values: the Human Domainome abundance scans (Beltran et al. 2025)
± gives the uncertainty stated by the source.

B1: 1-phosphatidylinositol 4,5-bisphosphate phosphodiesterase gamma-2, residues 772 to 827; numbered along this chain, P16885 (parent)
chain: RTVKALYDYKAKRSDELSFCRGALIHNVSKEPGGWWKGDYGTRIQQYFPSNYVEDI

Variants of: B1
Assay: abundance fitness (aPCA) (normalised: wild type 0, dead -1); higher = more abundant; growth selection in yeast, the domain comes from the species named
Details: Homo sapiens

Variant | abundance fitness
RTVKALYDYKAKRSDELSFCRGALIHNVSKEPGGWWKGDYGTRIQMYFPSNYVEDI [Q46M] | 0.006 ± 0.075
RTVKALYDYKAKRSDELSFCRGALIHNVSKEPGGWWKKDYGTRIQQYFPSNYVEDI [G38K] | -1.01 ± 0.44
RTVKALYDYKAKRSDELSFCRGALIHNVSKEPGGWWKIDYGTRIQQYFPSNYVEDI [G38I] | -0.765 ± 0.47
RTVKALYDYKAKRSDELRFCRGALIHNVSKEPGGWWKGDYGTRIQQYFPSNYVEDI [S18R] | -0.936 ± 0.12
RTVKALYDYKAKRSDELEFCRGALIHNVSKEPGGWWKGDYGTRIQQYFPSNYVEDI [S18E] | 0.018 ± 0.11
RTVKALYDYKAKRSDELSFCRGALIHNVSKEPGGWWKGDYGTRIQQYPPSNYVEDI [F48P] | -0.923 ± 0.093
RTVKALYDYKAKRSDELSFCRGALIHNVSKEPGGWWKGDYGRRIQQYFPSNYVEDI [T42R] | 0.03 ± 0.063
RTVKALYDYKAKRSDELSFCRGALIHNVSKEPGGWKKGDYGTRIQQYFPSNYVEDI [W36K] | -0.705 ± 0.27
RTVKALYDYKAKRSDELSFCRGALIHNVSKEPGGWTKGDYGTRIQQYFPSNYVEDI [W36T] | -0.89 ± 0.31
RTVKALYDYKAKRSDELSFCRGALIHNVSKEPGGWQKGDYGTRIQQYFPSNYVEDI [W36Q] | -0.839 ± 0.29
RTVKALYDYKAKRSDELSFCRGALIHNVSKEPGGWCKGDYGTRIQQYFPSNYVEDI [W36C] | -0.108 ± 0.045
RTVKALYDYKAKRSDELSFCRGALIHNVSKEPGGWWKGDYGTRVQQYFPSNYVEDI [I44V] | 0.043 ± 0.064
RTVKALYDYKAKRSDELSFCRGALIHNVSKEPGGWWKGDYGTRYQQYFPSNYVEDI [I44Y] | -0.116 ± 0.1
RTVKALYDYKAKRSDELSFCRGALIMNVSKEPGGWWKGDYGTRIQQYFPSNYVEDI [H26M] | -0.069 ± 0.096
RTVKALYDYKAKRSDELSFCRGALINNVSKEPGGWWKGDYGTRIQQYFPSNYVEDI [H26N] | -0.198 ± 0.094
RTVKALYDYKAKRSDELSFCRGALIINVSKEPGGWWKGDYGTRIQQYFPSNYVEDI [H26I] | -0.084 ± 0.13
RTVKALYDYKAKRSDELSFCRGALIDNVSKEPGGWWKGDYGTRIQQYFPSNYVEDI [H26D] | -0.173 ± 0.12
RTVKALYDYKAKRSDELSFCRGALIHNMSKEPGGWWKGDYGTRIQQYFPSNYVEDI [V28M] | -1.08 ± 0.15
RTVKALYDYKAKRSDELSFCRGALIHGVSKEPGGWWKGDYGTRIQQYFPSNYVEDI [N27G] | -0.654 ± 0.067
RTVKALYDYKAKRSDELSFCRGALIHKVSKEPGGWWKGDYGTRIQQYFPSNYVEDI [N27K] | -0.625 ± 0.06
RTVKALYDYKAKRSDELSFCRGALIHFVSKEPGGWWKGDYGTRIQQYFPSNYVEDI [N27F] | -1.05 ± 0.47
RTVIALYDYKAKRSDELSFCRGALIHNVSKEPGGWWKGDYGTRIQQYFPSNYVEDI [K4I] | 0.049 ± 0.14
RTVDALYDYKAKRSDELSFCRGALIHNVSKEPGGWWKGDYGTRIQQYFPSNYVEDI [K4D] | -0.809 ± 0.47
RTVKALYYYKAKRSDELSFCRGALIHNVSKEPGGWWKGDYGTRIQQYFPSNYVEDI [D8Y] | -0.576 ± 0.1

Variant | abundance fitness
RTVKALYDYKAKRSDELSFRRGALIHNVSKEPGGWWKGDYGTRIQQYFPSNYVEDI [C20R] | 0.11 ± 0.055
RTVKALYDYKAKRSDELSFCRGALIHNVSKEPGGWWTGDYGTRIQQYFPSNYVEDI [K37T] | -0.32 ± 0.14
RTVKALYDYKAKRSDWLSFCRGALIHNVSKEPGGWWKGDYGTRIQQYFPSNYVEDI [E16W] | -1.02 ± 0.47
RTVKARYDYKAKRSDELSFCRGALIHNVSKEPGGWWKGDYGTRIQQYFPSNYVEDI [L6R] | -0.177 ± 0.074
RTVKAAYDYKAKRSDELSFCRGALIHNVSKEPGGWWKGDYGTRIQQYFPSNYVEDI [L6A] | -0.195 ± 0.055
RTVKADYDYKAKRSDELSFCRGALIHNVSKEPGGWWKGDYGTRIQQYFPSNYVEDI [L6D] | -0.577 ± 0.22
RTVKALYDYCAKRSDELSFCRGALIHNVSKEPGGWWKGDYGTRIQQYFPSNYVEDI [K10C] | -0.034 ± 0.055
RTVKALYDYVAKRSDELSFCRGALIHNVSKEPGGWWKGDYGTRIQQYFPSNYVEDI [K10V] | 0.103 ± 0.082
RTVKALYDYKAKRSDELSFCRGALIHNVSKEPGGWWKGFYGTRIQQYFPSNYVEDI [D39F] | -0.486 ± 0.49
RTVKALYDYKAKKSDELSFCRGALIHNVSKEPGGWWKGDYGTRIQQYFPSNYVEDI [R13K] | -0.267 ± 0.21
RTVKALYDYKAKCSDELSFCRGALIHNVSKEPGGWWKGDYGTRIQQYFPSNYVEDI [R13C] | -0.212 ± 0.13
RTVKALYDYKAQRSDELSFCRGALIHNVSKEPGGWWKGDYGTRIQQYFPSNYVEDI [K12Q] | -0.077 ± 0.052
RTVKELYDYKAKRSDELSFCRGALIHNVSKEPGGWWKGDYGTRIQQYFPSNYVEDI [A5E] | -0.908 ± 0.12
RTVKALYDYKAKRSDELSFCRGALIHNVSKEPGGWWKGDVGTRIQQYFPSNYVEDI [Y40V] | -0.216 ± 0.069
RTVKALYDYKAKRSDELSFCRGALIHNVSVEPGGWWKGDYGTRIQQYFPSNYVEDI [K30V] | -0.047 ± 0.059
RTVKALYDYKAKRSDEVSFCRGALIHNVSKEPGGWWKGDYGTRIQQYFPSNYVEDI [L17V] | -0.41 ± 0.14
RTVKALYDYKAKRSDEISFCRGALIHNVSKEPGGWWKGDYGTRIQQYFPSNYVEDI [L17I] | -0.154 ± 0.35
RTVKALYDYKAKRSDELSFCRGALIHNVSKEPGGWWKGDYGTRIQQYFPANYVEDI [S50A] | 0.221 ± 0.095
RTVKALYDYKAKRSDELSFCRGALIHNVSKEPGGWWKGDYGTRIQQYFPSNQVEDI [Y52Q] | -0.281 ± 0.1
RTVKALYDYKAKRSDELSFCRGALIHNVSKEPGGWWKGDYGTRIQQYFPSNYVESI [D55S] | -0.216 ± 0.081
RTVKALYDYKAKRSDELSFCRGALIHNVSKEPGGWWKGDYGTRIQQYFPSNYVECI [D55C] | -0.139 ± 0.049
RTVKALYDYKAKRSDELSFCRGHLIHNVSKEPGGWWKGDYGTRIQQYFPSNYVEDI [A23H] | -0.471 ± 0.27
RTVKALYDYKAKRSDELSFCRGELIHNVSKEPGGWWKGDYGTRIQQYFPSNYVEDI [A23E] | -0.052 ± 0.088
